{"source": "paper doi:10.1101/322404", "about": "“Discovery of a novel stereospecific β-hydroxyacyl-CoA lyase/thioesterase shared by three metabolic pathways in Mycobacterium tuberculosis” (bioRxiv, 2018)", "molecular_target": "the molecule itself", "experiment": "crystal structure", "data": [{"protein": "Mycobacterium tuberculosis Rv2498c, β-hydroxyacyl-CoA lyase/thioesterase (enzyme, also called β-HAClyase/thioesterase; CitE-like) MNLRAAGPGWLFCPADRPERFAKAAAAADVVILDLEDGVAEAQKPAARNALRDTPLDPERTVVRINAGGTADQARDLEALAGTAYTTVMLPKAESAAQVIELAPRDVIALVETARGAVCAAEIAAADPTVGMMWGAEDLIATLGGSSSRRADGAYRDVARHVRSTILLAASAFGRLALDAVHLDILDVEGLQEEARDAAAVGFDVTVCIHPSQIPVVRKAYRPSHEKLAWARRVLAASRSERGAFAFEGQMVDSPVLTHAETMLRRAGEATSE", "values": [{"measurement": "stoichiometry N", "value": 3}]}]}
